The values that follow come from patent publication US20180208666A1 (VENTANA MEDICAL SYSTEMS, published 2018).

Ends that are not written are not given here.

The target of one assay is T1, human OX40 (human, UniProt P43489 29-277).
T1 construct: no signal peptide limits are stated
T1 sequence: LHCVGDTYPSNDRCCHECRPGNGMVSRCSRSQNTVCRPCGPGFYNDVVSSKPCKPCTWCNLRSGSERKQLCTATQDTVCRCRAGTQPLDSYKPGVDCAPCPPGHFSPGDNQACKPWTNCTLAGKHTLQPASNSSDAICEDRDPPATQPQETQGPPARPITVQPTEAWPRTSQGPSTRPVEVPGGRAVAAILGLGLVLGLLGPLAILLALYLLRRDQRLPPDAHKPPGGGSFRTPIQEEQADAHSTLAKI
Kind of assay: IHC on FFPE OX-40 transfected cells and FFPE tissues, ultraView DAB detection. As to the method:
IHC was performed using StdCC1 cell conditioning with ultraView Universal DAB Detection Kit (Ventana Medical Systems, Inc., Tucson, Ariz.). Primary antibody was incubated for 16 min at 37° C. on a BenchMark ULTRA automated slide stainer (Ventana Medical Systems, Inc., Tucson, Ariz.). Results are shown at Fig. (A) Mock transfected cells (negative control cells); (B) OX-40 transfected cells (positive control cells); (C) Reactive lymph node; and (D) Prostate adenocarcinoma.

Assay [1] deals with T2, peptide fragment of amino acid residues 266-277 of OX40 (human, also: conjugated to KLH for immunisation).
T2 construct: It was conjugated to KLH for immunisation; also called OX40 antigen; 12-amino acid fragment
T2 peptide: EQADAHSTLAKI
Kind of assay: ELISA screen of antibody-expressing cells on the OX40 antigen (peptide 266-277). The source says:
Anti-OX40 rabbit monoclonal antibodies were generated as schematically depicted in FIG. 1. Briefly, the peptide fragment of amino acid residues 266-277 of was synthesized. The 12-amino acid fragment intended for immunization was conjugated to keyhole limpet hemocyanin (KLH), an extensively used carrier protein for stimulating a substantial immune response via antibody production. New Zealand White rabbits were immunized with KLH conjugated OX40 antigen emulsified with complete Freund's adjuvant followed by a series of OX40 antigen booster emulsified with incomplete Freund's adjuvant. The antibody-expressing cells were screened by enzyme-linked immunoabsorbant assay (ELISA) using the OX40 antigen. All ELISA positive clones were further screened by immunohistochemistry (IHC), and the clone producing the antibody with the highest specificity was selected. For recombinant production of anti-OX40 antibodies, cDNA coding for the heavy chain and light chain sequences of the antibodies were cloned, expressed by co-transfection, and screened for binding to OX40 by IHC. Anti-OX40 monoclonal antibody SP197 was produced using these methods and subsequently purified by Protein A affinity chromatography. The heavy and light chain variable region sequences of the SP197 antibody are as follows.
On the technique in general: An ELISA detects its analyte on a solid surface through an enzyme-linked reagent.

B1: Anti-OX40 monoclonal antibody SP197 (antibody, V domains shown)
VH: QSLEESGGRLVAPGGSLTLTCTVSGIDLSSDNIQWVRQAPGKGLEWIGAVDYNNKPFYANWAKGRFTISKTSSTTVDLKMTSLTTEDTATYFCAKNTFSPWGPGTLVTVSS
VL: DPAMTQTPSSTSAAVGGTVTINCQSSQSVYNANHLSWFQQKPGQPPKRLIYYISTPDSGVPPRFSGSGSGTQFTLTISGVQCDDAATYYCAALNSDEVFTFGGGTEVVVK
notes: also called rabbit anti-human OX-40 monoclonal antibody (SP197); anti-OX40 antibody SP197
On to B1, for which the binding result (with human OX40; in assay [1]) was “binds” each time.
